Consider three compounds from US20170095417A1, “Percutaneous Implement and Method for Manufacturing” (priority 2015, published 2017).

One data set deals with rat. Description: Micro payload injected in rat, hypotension and dye distribution (Example 5). In kind it is in vivo. The following applies: half-shell Maltose cone mixed 1 mg Alprostadil, indicates vasodilation. Here is the method: A sample of micro payload integrated a 1 mm length conic micro-head with drug and 2 mm length micro-stem without drug was injected in rat.
For data set [1], the system named is skin. The following applies: in vivo.
Data set [2] is classed as physicochemical. The text has this:
(§1) Quadrangular pyramidal micro-head of 0.7 mm length and 0.1 mm bottom side length was contained anhydrous and amorphous oblate spheroidal Maltose chip of 0.02 mm length and 0.01 mm diameter. The chip was made from mixing material of 50% Maltose and 50% Hyaluronic acid included 30% albumen which was non-heat resistance limited in 70 degree centigrade. Three micro-heads were installed in three lengths of micro implements of 1 mm, 2 mm, and 3 mm.

The test system of data set [3] is skin. The following applies: rat, in vivo.
Text: as §1

Consider `CCCCC[C@H](O)/C=C/[C@H]1[C@H](O)CC(=O)[C@@H]1CCCCCCC(=O)O` [Alprostadil], for which, in the data set on rat, the hypotension came out at 20 mmHg.
With Hyaluronic acid, in the data set on skin [1], the “transfer of chip into skin” value is “completely transferred into skin”.
For the compound albumin, the “heat stability in forming process” value in data set [2] was “resisted temperature of the micro implement forming process”. Moreover, in the data set with skin [3], the “aggregation depths versus implement length” value is reported as “corresponded to the three length respectively” and the deposition in skin entry is on record as “albumin aggregation in skin”.
